Test results from paper PMC7949130, “Defective binding of SPINK1 variants is an uncommon mechanism for impaired trypsin inhibition in chronic pancreatitis” (The Journal of Biological Chemistry, 2021).
Positions count from the first letter of the chain named. Names may count otherwise. One block for each binder: values may come before it.

Assays:
Conditions in all cases: both partners purified
[1] = target: T1, nonsulfated human anionic trypsin purified from E. coli (human, UniProt P07478 24-247); assay: equilibrium binding assay; equilibrium dissociation constant of ecotin on human trypsins, 15 h of incubation; further conditions not told for ecotin
T1 construct: human anionic trypsin, the active enzyme cut from anionic trypsinogen (Hu2) by enteropeptidase; Not sulfated on Tyr154; also called Hu2 (E. coli); Hu2
T1 sequence (P07478 24-247): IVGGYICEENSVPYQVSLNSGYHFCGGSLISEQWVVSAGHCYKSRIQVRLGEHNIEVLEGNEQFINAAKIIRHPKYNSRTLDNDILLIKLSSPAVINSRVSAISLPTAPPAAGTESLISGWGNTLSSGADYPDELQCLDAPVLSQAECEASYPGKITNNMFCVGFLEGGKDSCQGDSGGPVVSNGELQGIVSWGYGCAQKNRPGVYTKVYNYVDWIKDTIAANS

[2] = target: T2, native sulfated human anionic trypsin purified from pancreatic juice (human, UniProt P07478 24-247, sulfated on Tyr154); assay: as above
T2 construct: human anionic trypsin, the active enzyme cut from anionic trypsinogen by enteropeptidase; also called Hu2-SO4 (native); Hu2-SO4
T2 sequence (P07478 24-247): as above

[3] = target: T1, nonsulfated human anionic trypsin …; assay: KD calculated from the rate constants (association and dissociation rate assays); KD(calc): equilibrium dissociation constant calculated from kon and koff of the activity-based rate assays
[4] = target: T2, native sulfated human anionic trypsin …; assay: as above
[5] = target: T1, nonsulfated human anionic trypsin …; assay: discontinuous association rate assay (residual trypsin activity); 50 pM trypsin mixed with 500 pM SPINK1, 0.1 M Tris-HCl (pH 8.0), 150 mM NaCl, 1 mM CaCl2, 0.05% Tween 20, 23 °C; kon from the pseudo-first-order rate constant divided by the inhibitor concentration
[6] = target: T2, native sulfated human anionic trypsin …; assay: as above
[7] = target: T1, nonsulfated human anionic trypsin …; assay: dissociation rate assay (recovery of trypsin activity after dilution of the complex); complex of 11 nM SPINK1 and 10 nM trypsin formed for 1 h at 23 °C, diluted to 50-200 pM with 0.6 mM Z-Gly-Pro-Arg-AMC, 0.1 M Tris-HCl (pH 8.0), 150 mM NaCl, 1 mM CaCl2, 0.05% Tween 20, room temperature, followed for 1 h
[8] = target: T2, native sulfated human anionic trypsin …; assay: as above
[9] = target: T1, nonsulfated human anionic trypsin …; assay: equilibrium binding assay (free trypsin activity on a fluorogenic substrate); fixed trypsin incubated with increasing SPINK1, 0.2 ml, 0.1 M Tris-HCl (pH 8.0), 150 mM NaCl, 1 mM CaCl2, 0.05% Tween 20, 15 h; free trypsin measured with Z-Gly-Pro-Arg-AMC; apparent KD, global fit of at least three experiments
[10] = target: T2, native sulfated human anionic trypsin …; assay: as above
[11] = target: T3, nonsulfated human anionic trypsin purified from the conditioned medium of transfected HEK 293T cells (human, UniProt P07478 24-247); assay: as above
T3 construct: human anionic trypsin, the active enzyme cut from anionic trypsinogen (Hu2) by enteropeptidase; Sulfation prevented by sodium chlorate; also called Hu2 (HEK 293T); source: HEK 293T, transfected, grown with 50 mM sodium chlorate
T3 sequence (P07478 24-247): as above

[12] = target: T4, sulfated human anionic trypsin purified from the conditioned medium of transfected HEK 293T cells (human, UniProt P07478 24-247, sulfated on Tyr154); assay: as above
T4 construct: human anionic trypsin, the active enzyme cut from anionic trypsinogen (Hu2) by enteropeptidase; also called Hu2-SO4 (HEK 293T); source: HEK 293T, cotransfected with tyrosylprotein sulfotransferase 2
T4 sequence (P07478 24-247): as above

[13] = target: T2, native sulfated human anionic trypsin …; assay: equilibrium binding assay (free trypsin activity on a fluorogenic substrate); as the equilibrium assay but K41N SPINK1 incubated with trypsin for 1 h; 0.1 M Tris-HCl (pH 8.0), 150 mM NaCl, 1 mM CaCl2, 0.05% Tween 20; apparent KD
[14] = target: T2, native sulfated human anionic trypsin …; assay: equilibrium binding assay (free trypsin activity on a fluorogenic substrate); fixed trypsin incubated with increasing SPINK1, 0.2 ml, 0.1 M Tris-HCl (pH 8.0), 150 mM NaCl, 1 mM CaCl2, 0.05% Tween 20, 15 h; free trypsin measured with Z-Gly-Pro-Arg-AMC; apparent KD, global fit of at least three experiments; remark: listed apart in the source

Kd [1]: 0.0032 nM
Kd [2]: 0.0195 nM
B1: ecotin (natural protein)
chain: not shown
notes: source: E. coli BL21(DE3), overexpressed, purified from the periplasm

Kd [3]: 0.0001 nM
Kd [4]: 0.0075 nM
kon [5]: 3.8e+06 M⁻¹ s⁻¹
kon [6]: 2.4e+06 M⁻¹ s⁻¹
koff [7]: 5e-07 s⁻¹
koff [8]: 1.81e-05 s⁻¹
Kd [9]: 0.0003 nM
Kd [10]: 0.0367 nM
Kd [11]: 0.0005 nM
Kd [12]: 0.009 nM
B2: serine protease inhibitor Kazal type 1 (SPINK1), wildtype, C-terminal 10His tag (natural protein, human, UniProt P00995 24-79, looked up)
chain: DSLGREAKCYNELNGCTKIYDPVCGTDGNTYPNECVLCFENRKRQTSILIQKSGPC
notes: expressed from the SPINK1-minigene-1 construct with its own signal peptide; Residue numbers start at the initiator methionine; source: HEK 293T, transfected, purified from conditioned medium (nickel-nitrilotriacetic acid cartridge); not shown: 10His, C-terminal, kept

Kd [13]: 1150 nM
B3: SPINK1 variant K41N, C-terminal 10His tag (natural protein, human, UniProt P00995 24-79, looked up)
chain: B2 chain with K18N
notes: Its concentration was determined by SDS-PAGE and densitometry, not by active site titration; also called SPINK1 K41N; p.K41N; source: HEK 293T, transfected, purified from conditioned medium (nickel-nitrilotriacetic acid cartridge); not shown: 10His, C-terminal, kept

Kd [14]: 0.027 nM
B4: SPINK1 variant Q68R, C-terminal 10His tag (natural protein, human, UniProt P00995 24-79, looked up)
chain: B2 chain with Q45R
notes: also called SPINK1 Q68R; p.Q68R; source: HEK 293T, transfected, purified from conditioned medium (nickel-nitrilotriacetic acid cartridge); not shown: 10His, C-terminal, kept

Kd [14]: 0.0214 nM
B5: SPINK1 variant N37S, C-terminal 10His tag (natural protein, human, UniProt P00995 24-79, looked up)
chain: B2 chain with N14S
notes: also called SPINK1 N37S; p.N37S; source: HEK 293T, transfected, purified from conditioned medium (nickel-nitrilotriacetic acid cartridge); not shown: 10His, C-terminal, kept

Kd [14]: 0.006 nM
B6: SPINK1 variant R65Q, C-terminal 10His tag (natural protein, human, UniProt P00995 24-79, looked up)
chain: B2 chain with R42Q
notes: also called SPINK1 R65Q; p.R65Q; source: HEK 293T, transfected, purified from conditioned medium (nickel-nitrilotriacetic acid cartridge); not shown: 10His, C-terminal, kept

Kd [3]: 0.0001 nM
Kd [4]: 0.0044 nM
kon [5]: 5.1e+06 M⁻¹ s⁻¹
kon [6]: 3.1e+06 M⁻¹ s⁻¹
koff [7]: 4e-07 s⁻¹
koff [8]: 1.36e-05 s⁻¹
Kd [9]: 0.0004 nM
Kd [10]: 0.0167 nM
Kd [11]: 0.0008 nM
Kd [12]: 0.0063 nM
B7: SPINK1 variant N34S, C-terminal 10His tag (natural protein, human, UniProt P00995 24-79, looked up)
chain: B2 chain with N11S
notes: also called SPINK1 N34S; p.N34S; source: HEK 293T, transfected, purified from conditioned medium (nickel-nitrilotriacetic acid cartridge); not shown: 10His, C-terminal, kept

Kd [14]: 0.123 nM
B8: SPINK1 variant P55S, C-terminal 10His tag (natural protein, human, UniProt P00995 24-79, looked up)
chain: B2 chain with P32S
notes: also called SPINK1 P55S; p.P55S; source: HEK 293T, transfected, purified from conditioned medium (nickel-nitrilotriacetic acid cartridge); not shown: 10His, C-terminal, kept

Kd [14]: 0.258 nM
B9: SPINK1 variant I42M, C-terminal 10His tag (natural protein, human, UniProt P00995 24-79, looked up)
chain: B2 chain with I19M
notes: also called SPINK1 I42M; p.I42M; source: HEK 293T, transfected, purified from conditioned medium (nickel-nitrilotriacetic acid cartridge); not shown: 10His, C-terminal, kept
